The record followed here is article doi:10.1101/2020.06.27.175497, “Novel mode of filament formation in UPA-promoted CARD8 and NLRP1 Inflammasomes” (bioRxiv, 2020).

Sequences and labels used below:
B1: CARD8-CT (UPA-CARD fragment of CARD8, S297-L537) (domain or fragment, human, UniProt Q9Y2G2-5 297-537, looked up)
chain: SLMGILLRIASGTRLSIPITSNTLIYYHPHPEDIKFHLYLVPSDALLTKAIDDEEDRFHGVRLQTSPPMEPLNFGSSYIVSNSANLKVMPKELKLSYRSPGEIQHFSKFYAGQMKEPIQLEITEKRHGTLVWDTEVKPVDLQLVAASAPPPFSGAAFVKENHRQLQARMGDLKGVLDDLQDNEVLTENEKELVEQEKTRQSKNEALLSMVEKKGDLALDVLFRSISERDPYLVSYLRQQNL
notes: CARD8, human, UPA-CARD fragment S297-L537 of the T60 isoform; numbers count on: the T60 isoform Q9Y2G2-5; Forms helical filaments; the purified filaments still held some uncleaved His-MBP-tagged subunits; Only the CARD is resolved in the map; also called CARD8^UPA-CARD; source: E. coli BL21 (DE3), purified (amylose resin, MBP-3C protease cleavage, Superose 6 void fraction); not shown: His, …
B2: His-MBP-3C-UPA-CARD of CARD8 (uncleaved MBP fusion of CARD8-CT) (domain or fragment, human, UniProt Q9Y2G2-5 297-537, looked up)
chain: B1 chain
notes: CARD8, human, UPA-CARD fragment S297-L537 of the T60 isoform; numbers count on: the T60 isoform Q9Y2G2-5; HRV 3C protease linker between MBP and UPA-CARD; modified pDB-His-MBP vector; also called MBP-fusion protein; MBP-CT fusion protein; source: E. coli BL21 (DE3), purified (amylose resin); not shown: His, N-terminal, kept; MBP, N-terminal, kept
B3: ASC^CARD (106-195, W169G) - 5 x GSS linker - caspase-1^CARD (1-95, G20K) fusion protein (other)
chain: SAAKPGLHFIDQHRAALIARVTNVEWLLDALYGKVLTDEQYQAVRAEPTNPSKMRKLFSFTPAGNWTCKDLLLQALRESQSYLVEDLERSGSSGSSGSSGSSGSSMADKVLKEKRKLFIRSMGEKTINGLLDELLQTRVLNKEEMEKVKRENATVMDKTRALIDSVIPKGAQACQICITYICEEDSYLAGTLGLSADQTS
notes: ASC, CARD, residues 106-195; 5 x GSS linker, written out from '5XGSS'; caspase-1, CARD, residues 1-95; Tetramer of the fusion = octamer of CARDs; also called ASC^CARD-caspase-1^CARD fusion protein; ASC^CARD-CASP1^CARD; source: E. coli BL21 (DE3), purified (Ni-NTA, TEV cleavage, amylose flow-through, Superdex 200); not shown: His6, N-terminal, cleaved; MBP, N-terminal, cleaved
B4: NLRP1^CARD (D1374-S1473, with G1463C) (domain or fragment, human, UniProt Q9C000-1 1374-1473, looked up)
chain: DAPQLLHFVDQYREQLIARVTSVEVVLDKLHGQVLSQEQYERVLAENTRPSQMRKLFSLSQSWDRKCKDGLYQALKETHPHLIMELWEKCSKKGLLPLSS
notes: NLRP1, human, CARD D1374-S1473, isoform 1 (Q9C000-1); G1463C (helix alpha6) was added for cysteine labelling in the constructs for in vitro analyses; The cleavage of the tag is described for the CARD8^CARD filament assay; also called CARD alone; WT CARD; source: E. coli BL21 (DE3), purified as monomeric MBP-CARD (amylose resin, Superdex 200), filaments formed in vitro
B5: NLRP1-CT (UPA-CARD fragment of NLRP1, S1213-S1473) (domain or fragment, human, UniProt Q9C000-1 1213-1473, looked up)
chain: SPLGVLLKMIHNALRFIPVTSVVLLYHRVHPEEVTFHLYLIPSDCSIRKAIDDLEMKFQFVRIHKPPPLTPLYMGCRYTVSGSGSGMLEILPKELELCYRSPGEDQLFSEFYVGHLGSGIRLQVKDKKDETLVWEALVKPGDLMPATTLIPPARIAVPSPLDAPQLLHFVDQYREQLIARVTSVEVVLDKLHGQVLSQEQYERVLAENTRPSQMRKLFSLSQSWDRKCKDGLYQALKETHPHLIMELWEKGSKKGLLPLSS
notes: NLRP1, human, UPA-CARD fragment S1213-S1473, isoform 1 (Q9C000-1); Forms thick helical filaments of CARD dimers; the purified filaments still held some uncleaved His-MBP-tagged subunits; Only the CARD is resolved in the map; also called NLRP1^UPA-CARD; source: E. coli BL21 (DE3), purified (amylose resin, Superose 6, MBP-3C protease cleavage, Superose 6 void fraction); not shown: His, …
B6: His-MBP-3C-UPA-CARD of NLRP1 (uncleaved MBP fusion of NLRP1-CT) (domain or fragment, human, UniProt Q9C000-1 1213-1473, looked up)
chain: B5 chain
notes: NLRP1, human, UPA-CARD fragment S1213-S1473, isoform 1 (Q9C000-1); HRV 3C protease linker between MBP and UPA-CARD; modified pDB-His-MBP vector; also called MBP-fusion protein; MBP-CT fusion protein; source: E. coli BL21 (DE3), purified (amylose resin, Superose 6); not shown: His, N-terminal, kept; MBP, N-terminal, kept
B7: ASC^CARD (106-195) W169G (domain or fragment, UniProt Q9ULZ3 106-195, looked up)
chain: SAAKPGLHFIDQHRAALIARVTNVEWLLDALYGKVLTDEQYQAVRAEPTNPSKMRKLFSFTPAGNWTCKDLLLQALRESQSYLVEDLERS
notes: ASC, CARD, residues 106-195; Stood in the experiment on one chain with caspase-1^CARD G20K through a 5 x GSS linker (fusion m9); also called type IIa W169G mutant of ASC^CARD; source: E. coli BL21 (DE3), purified (Ni-NTA, TEV cleavage, amylose flow-through, Superdex 200), as part of the fusion m9
B8: caspase-1^CARD (1-95) G20K (domain or fragment, UniProt P29466 1-95, looked up)
chain: MADKVLKEKRKLFIRSMGEKTINGLLDELLQTRVLNKEEMEKVKRENATVMDKTRALIDSVIPKGAQACQICITYICEEDSYLAGTLGLSADQTS
notes: caspase-1, CARD, residues 1-95; Stood in the experiment on one chain with ASC^CARD W169G through a 5 x GSS linker (fusion m9); also called CASP1^CARD; type IIb G20K mutant of caspase-1^CARD; source: E. coli BL21 (DE3), purified (Ni-NTA, TEV cleavage, amylose flow-through, Superdex 200), as part of the fusion m9

Series [1] concerns the molecule itself. In words: cryo-EM structure; purified CARD8 CT filaments (Superose 6 void fraction), A280 = 0.75; 25 mM Tris-HCl pH 7.5, 150 mM NaCl, 1 mM TCEP; helical reconstruction.
The target in series [2] is B1. Nature of the series: SEC; after partial 3C cleavage, filaments recovered from the Superose 6 void fraction; SDS-PAGE of the fraction shows uncleaved MBP-tagged protein. To be noted: both partners purified. Background: SEC sorts molecules by how far they enter the pores of the column.
Series [3] concerns the molecule itself. Nature of the series: SEC-MALS; Superdex 200 in 25 mM Tris-HCl pH 8.0, 150 mM NaCl, 2 mM DTT; three-angle light scattering and refractive index detectors.
Series [4] concerns the molecule itself. Nature of the series: negative-stain EM of filaments formed in vitro; recombinant MBP-tagged protein cleaved with 3C protease, sample stained with 1% uranyl formate and imaged.
Series [5] has as its target B5. Nature of the series: SEC; after partial 3C cleavage, filaments recovered from the Superose 6 void fraction; SDS-PAGE of the fraction shows uncleaved MBP-tagged protein. To be noted: both partners purified.
Series [6] deals with the molecule itself. Nature of the series: SEC; amylose eluate of His-MBP-NLRP1-CT on Superose 6 in 25 mM Tris-HCl pH 7.5, 150 mM NaCl, 1 mM TCEP; a range of small oligomers.
Series [7] concerns the molecule itself. Nature of the series: cryo-EM structure; purified ASC^CARD-caspase-1^CARD octamer (tetramer of the fusion protein); single-particle reconstruction.
In series [8] the target is B8. Described as above. The conditions noted are these: both partners purified.

Turning to B1, the binding result in series [1] is listed as “binds”.

Turning to B2, in series [2], the binding result was “binds”. In general, stoichiometry N refers to a count of units in the complex or per binding partner. With B3, the “stoichiometry N” value in series [3] worked out at 4. As for B4, the binding result in series [4] is “binds”. B5: in series [4], the binding result is “binds”.

In the case of B6, the binding result in series [5] and in series [6] was “binds” each time. For B7, the binding result in series [7] and in series [8] was “binds” in each case. For B8, the binding result in series [7] is listed as “binds”.
